Test results as given in patent publication US20120171118A1, “TREATMENT OF MENINGEAL AND NEURAL DISEASES” (THE GENERAL HOSPITAL CORPORATION, priority 2009, published 2012).

Key:
[1] = systemically administered; cited from earlier work
[2] = neoplastic carcinoma patients; cited from earlier work
[3] = assay type: in vitro ADME; details: rat, plasma
Experimental: The mechanism of the second stage hydrolysis in vivo, which results in the active CPT release, may include spontaneous or enzymatic hydrolysis as well as, e.g., aminolysis. In vitro, the half-life of (N-succinamido)-glycyl linkage in the CPT prodrug (VI) in rat plasma was over 20 hours.

[4] = assay type: physicochemical
From the text: Based on the experimental data on CPT release from PHF-CPT, the action of the conjugate after intrathecal administration will be localized in the target compartment (leptomeningeal tissues contacting with CSF). The kinetics of CPT release includes two phases: (1) non-enzymatic release of a highly hydrophobic prodrug camptothecin succinimidoglycinate (CPT-SI), and (2) release of active CPT from CPT-SI (Scheme 6). […] Thus, it is expected that CPT-SI will be deposited in the leptomeningeal space and will redistribute only locally along cell membranes and other hydrophobic compartments. […] A similar distribution pattern in the meningeal compartment is expected, with CPT-SI penetration from CSF into the cancer cell formations through several cell layers.

[5] = humans, cited from earlier work
[6] = PET imaging of 124I-labeled human recombinant enzymes after IV and IT administration; assay type: in vivo, rats
Experimental: Imaging was performed using MicroPET P4. Spatial resolution (full width at half maximum, FWHM) was studied using a line ^124I source (Ø=0.19 mm) in water. A 51×127 mm cylindrical phantom was used to evaluate the count-rate performance and coincidence detection. Studies in rats and cynomolgus monkeys were carried out using five human recombinant enzymes. The proteins were labeled with ^124I, at up to 5 mCi/mg.
Next, three human recombinant enzymes, idursulfase, arylsulfatase A, and sulfamidase were labeled with ^124I and administered at 1 and 10 mg/kg via two routes, IV and IT. Dynamic imaging data and multiple static images were acquired over 8 days, and processed to determine the principal PK parameters. FITC labeled sulfamidase was also utilized to investigate brain cryosections by photoimaging.

In the case of `CN(Cc1cnc2nc(N)nc(N)c2n1)c1ccc(C(=O)N[C@@H](CCC(=O)O)C(=O)O)cc1` [methotrexate], the “CSF level relative to the systemic level” value [1] is listed as 1.7%.

For `CC[C@@]1(O)C(=O)OCc2c1cc1n(c2=O)Cc2cc3c(CN(C)C)c(O)ccc3nc2-1` [topotecan], the clinical outcome [2] is listed as “not promising”.

In the case of “camptothecin succinimidoglycinate [CPT-SI]”, the “half-life of (N-succinamido)-glycyl linkage” value [3] is reported as “over 20 hours” and the solubility in water [4] is reported as “practically insoluble in water”.

For “indium complex of diethylenetriaminepentaacetic acid [In-DTPA]”, the “time to reach brain ventricles” value ([5]; after intralumbar injection) is listed as “ca. 5 hours” and the “half-life in CSF” value [5] is listed as 13.5 ± 4.5 h.

B1: idursulfase: human recombinant enzyme labeled with 124I (protein, UniProt P22304 34-455; P22304 456-550, looked up)
Iduronate 2-sulfatase 42 kDa …: TDALNVLLIIVDDLRPSLGCYGDKLVRSPNIDQLASHSLLFQNAFAQQAVCAPSRVSFLTGRRPDTTRLYDFNSYWRVHAGNFSTIPQYFKENGYVTMSVGKVFHPGISSNHTDDSPYSWSFPPYHPSSEKYENTKTCRGPDGELHANLLCPVDVLDVPEGTLPDKQSTEQAIQLLEKMKTSASPFFLAVGYHKPHIPFRYPKEFQKLYPLENITLAPDPEVPDGLPPVAYNPWMDIRQREDVQALNISVPYGPIPVDFQRKIRQSYFASVSYLDTQVGRLLSALDDLQLANSTIIAFTSDHGWALGEHGEWAKYSNFDVATHVPLIFYVPGRTASLPEAGEKLFPYLDPFDSASQLMEPGRQSMDLVELVSLFPTLAGLAGLQVPPRCPVPSFHVELCREGKNLLKHFRFRDLEEDPYLPG
Iduronate 2-sulfatase 14 kDa …: NPRELIAYSQYPRPSDIPQWNSDKPSLKDIKIMGYSIRTIDYRYTVWVGFNPDEFLANFSDIHAGELYFVDSDPLQDHNMYNDSQGGDLFQLLMP
modifications: 124I label
notes: human recombinant enzyme labeled with 124I
For B1, the “half-life of clearance from both the brain and spinal cord” value ([6]; rat, in vivo) was “ca. 7 h”, the “initial label content in the brain region” value (“initial label content” below) ([6]; rat, in vivo) was 45 % of the injected dose/g and the “initial label content” value ([6]; rat, in vivo, iv) was 0.20 % of the injected dose/g.

B2: sulfamidase: human recombinant enzyme labeled with 124I (protein, UniProt P51688 21-502, looked up)
N-sulphoglucosamine …: RPRNALLLLADDGGFESGAYNNSAIATPHLDALARRSLLFRNAFTSVSSCSPSRASLLTGLPQHQNGMYGLHQDVHHFNSFDKVRSLPLLLSQAGVRTGIIGKKHVGPETVYPFDFAYTEENGSVLQVGRNITRIKLLVRKFLQTQDDRPFFLYVAFHDPHRCGHSQPQYGTFCEKFGNGESGMGRIPDWTPQAYDPLDVLVPYFVPNTPAARADLAAQYTTVGRMDQGVGLVLQELRDAGVLNDTLVIFTSDNGIPFPSGRTNLYWPGTAEPLLVSSPEHPKRWGQVSEAYVSLLDLTPTILDWFSIPYPSYAIFGSKTIHLTGRSLLPALEAEPLWATVFGSQSHHEVTMSYPMRSVQHRHFRLVHNLNFKMPFPIDQDFYVSPTFQDLLNRTTAGQPTGWYKDLRHYYYRARWELYDRSRDPHETQNLATDPRFAQLLEMLRDQLAKWQWETHDPWVCAPDGVLEEKLSPQCQPLHNEL
modifications: 124I label
notes: as for B1
With B2 the “initial label content” value ([6]; after IT administration, 124I label, PET) was 35 % of the injected dose/g and the “initial label content” value ([6]; after IV administration, 124I label, PET) was 0.05 % of the injected dose/g.

B3: arylsulfatase A: human recombinant enzyme labeled with 124I (protein, UniProt P15289 19-507, looked up)
Arylsulfatase A: RPPNIVLIFADDLGYGDLGCYGHPSSTTPNLDQLAAGGLRFTDFYVPVSLCTPSRAALLTGRLPVRMGMYPGVLVPSSRGGLPLEEVTVAEVLAARGYLTGMAGKWHLGVGPEGAFLPPHQGFHRFLGIPYSHDQGPCQNLTCFPPATPCDGGCDQGLVPIPLLANLSVEAQPPWLPGLEARYMAFAHDLMADAQRQDRPFFLYYASHHTHYPQFSGQSFAERSGRGPFGDSLMELDAAVGTLMTAIGDLGLLEETLVIFTADNGPETMRMSRGGCSGLLRCGKGTTYEGGVREPALAFWPGHIAPGVTHELASSLDLLPTLAALAGAPLPNVTLDGFDLSPLLLGTGKSPRQSLFFYPSYPDEVRGVFAVRTGKYKAHFFTQGSAHSDTTADPACHASSSLTAHEPPLLYDLSKDPGENYNLLGGVAGATPEVLQALKQLQLLKAQLDAAVTFGPSQVARGEDPALQICCHPGCTPRPACCHCPDPHA
modifications: 124I label
notes: as for B1
In the case of B3, the “initial label content” value ([6]; rat, in vivo) is reported as 70 % of the injected dose/g and the “initial label content” value ([6]; rat, in vivo, iv) is reported as 0.15 % of the injected dose/g.
